{"source": "paper PMC10821612", "key": {"[1]": {"target": "AMS0229 E1E2 glycoprotein on HCV pseudoparticles (HCVpp) (Hepatitis C virus (genotype 1a))"}, "[2]": {"target": "UKNP1.2.3 E1E2 glycoprotein on HCV pseudoparticles (HCVpp) (Hepatitis C virus)"}, "[3]": {"target": "UKNP2.4.1 E1E2 glycoprotein on HCV pseudoparticles (HCVpp) (Hepatitis C virus (genotype 2))"}}, "data": [{"substance": "Soluble CD81 LEL with Strep-tag (soluble version of the long external loop of the CD81 receptor) (domain or fragment)", "values": [{"measurement": "IC50 of neutralisation of HCVpp infection of Huh-7 cells (luciferase)", "setting": "[1]", "value": 92, "unit": "µg/mL"}, {"measurement": "IC50 of neutralisation of HCVpp infection of Huh-7 cells (luciferase)", "setting": "[2]", "value": 85, "unit": "µg/mL"}, {"measurement": "IC50 of neutralisation of HCVpp infection of Huh-7 cells (luciferase)", "setting": "[3]", "value": 82, "unit": "µg/mL"}]}]}
